# Legend:
# [1] = molecular target: the molecule itself; experiment: cryo-EM structure; DNA-ejected T7: purified mature T7 incubated with rough LPS (250 µg/mL) at 37°C for 3 h; entire particle asymmetric 8.2 Å; portal–tail complex 3.5 Å (six-fold)
# [2] = molecular target: the molecule itself; experiment: cryo-EM structure; mature T7 virions, in situ; entire particle asymmetric 6.1 Å; local reconstructions of core complex 3 Å (four-fold), portal 2.5 Å (twelve-fold), portal–tail complex 2.7 Å (six-fold)
Protein,stoichiometry N [1],stoichiometry N [2]
"nozzle protein gp12 (natural protein, bacteriophage T7, UniProt P03747 1-794, looked up, nozzle protein gp12 of bacteriophage T7, as it stands in the virion; Native virion protein; also called tail nozzle; source: T7 virions propagated in E. coli, purified (PEG precipitation, CsCl ultracentrifugation)) MALISQSIKNLKGGISQQPDILRYPDQGSRQVNGWSSETEGLQKRPPLVFLNTLGDNGALGQAPYIHLINRDEHEQYYAVFTGSGIRVFDLSGNEKQVRYPNGSNYIKTANPRNDLRMVTVADYTFIVNRNVVAQKNTKSVNLPNYNPNQDGLINVRGGQYGRELIVHINGKDVAKYKIPDGSQPEHVNNTDAQWLAEELAKQMRTNLSDWTVNVGQGFIHVTAPSGQQIDSFTTKDGYADQLINPVTHYAQSFSKLPPNAPNGYMVKIVGDASKSADQYYVRYDAERKVWTETLGWNTEDQVLWETMPHALVRAADGNFDFKWLEWSPKSCGDVDTNPWPSFVGSSINDVFFFRNRLGFLSGENIILSRTAKYFNFYPASIANLSDDDPIDVAVSTNRIAILKYAVPFSEELLIWSDEAQFVLTASGTLTSKSVELNLTTQFDVQDRARPFGIGRNVYFASPRSSFTSIHRYYAVQDVSSVKNAEDITSHVPNYIPNGVFSICGSGTENFCSVLSHGDPSKIFMYKFLYLNEELRQQSWSHWDFGENVQVLACQSISSDMYVILRNEFNTFLARISFTKNAIDLQGEPYRAFMDMKIRYTIPSGTYNDDTFTTSIHIPTIYGANFGRGKITVLEPDGKITVFEQPTAGWNSDPWLRLSGNLEGRMVYIGFNINFVYEFSKFLIKQTADDGSTSTEDIGRLQLRRAWVNYENSGTFDIYVENQSSNWKYTMAGARLGSNTLRAGRLNLGTGQYRFPVVGNAKFNTVYILSDETTPLNIIGCGWEGNYLRRSSGI",6,–
"fiber protein gp17 (natural protein, bacteriophage T7, UniProt P03748 1-553, looked up, tail fiber protein gp17 of bacteriophage T7, as it stands in the virion; Six trimeric fibers on the virion; also called tail fiber; source: T7 virions propagated in E. coli, purified (PEG precipitation, CsCl ultracentrifugation)) MANVIKTVLTYQLDGSNRDFNIPFEYLARKFVVVTLIGVDRKVLTINTDYRFATRTTISLTKAWGPADGYTTIELRRVTSTTDRLVDFTDGSILRAYDLNVAQIQTMHVAEEARDLTTDTIGVNNDGHLDARGRRIVNLANAVDDRDAVPFGQLKTMNQNSWQARNEALQFRNEAETFRNQAEGFKNESSTNATNTKQWRDETKGFRDEAKRFKNTAGQYATSAGNSASAAHQSEVNAENSATASANSAHLAEQQADRAEREADKLENYNGLAGAIDKVDGTNVYWKGNIHANGRLYMTTNGFDCGQYQQFFGGVTNRYSVMEWGDENGWLMYVQRREWTTAIGGNIQLVVNGQIITQGGAMTGQLKLQNGHVLQLESASDKAHYILSKDGNRNNWYIGRGSDNNNDCTFHSYVHGTTLTLKQDYAVVNKHFHVGQAVVATDGNIQGTKWGGKWLDAYLRDSFVAKSKAWTQVWSGSAGGGVSVTVSQDLRFRNIWIKCANNSWNFFRTGPDGIYFIASDGGWLRFQIHSNGLGFKNIADSRSVPNAIMVENE",–,3
"portal protein gp8 (natural protein, bacteriophage T7, UniProt P03728 1-536, looked up, portal protein gp8 of bacteriophage T7, as it stands in the virion; Native virion protein; also called dodecameric portal; source: T7 virions propagated in E. coli, purified (PEG precipitation, CsCl ultracentrifugation); copies: 12) MAEKRTGLAEDGAKSVYERLKNDRAPYETRAQNCAQYTIPSLFPKDSDNASTDYQTPWQAVGARGLNNLASKLMLALFPMQTWMRLTISEYEAKQLLSDPDGLAKVDEGLSMVERIIMNYIESNSYRVTLFEALKQLVVAGNVLLYLPEPEGSNYNPMKLYRLSSYVVQRDAFGNVLQMVTRDQIAFGALPEDIRKAVEGQGGEKKADETIDVYTHIYLDEDSGEYLRYEEVEGMEVQGSDGTYPKEACPYIPIRMVRLDGESYGRSYIEEYLGDLRSLENLQEAIVKMSMISSKVIGLVNPAGITQPRRLTKAQTGDFVTGRPEDISFLQLEKQADFTVAKAVSDAIEARLSFAFMLNSAVQRTGERVTAEEIRYVASELEDTLGGVYSILSQELQLPLVRVLLKQLQATQQIPELPKEAVEPTISTGLEAIGRGQDLDKLERCVTAWAALAPMRDDPDINLAMIKLRIANAIGIDTSGILLTEEQKQQKMAQQSMQMGMDNGAAALAQGMAAQATASPEAMAAAADSVGLQPGI",–,12

# Source: paper PMC11784390, “Conformational changes in and translocation of small proteins: insights into the ejection mechanism of podophages” (Journal of Virology, 2024)
